# Test results as given in the DeepSol protein solubility set.
# Test: soluble on expression in E. coli; label from the status in PepcDB or PDB records
row,Sequence,soluble on expression in E. coli
1,MGSDKIHHHHHHMNDFEEYIRQSEPHKREKGYAWQTAIGLQAVDGLKPSEYLKEKARQHIEGDITIDEVKQLVDSYYKSKVARSSSEDRTEEADKVSARITEILSENTFTFSPIEYLAIHRHLFEGIFSHAGQIRDYNITKNEWVLKGATVLYASAGSIRETLEYDFSQEKIFDYKNLNIDEAIRHIARFVSGIWQIHAFGEGNTRTTAVFTIKYLHTFGFNFSNETFANHSWYFRNALVRANYNDLTKGVYATTEFLEKFFRNLILNEQNELKNRNLQIDEIEKEAIQSAKQTDMDIPKCKNCTLDCTLEEIAVLNYLKEKPNATQKEIAQHIGKSERTVKSMTVNLSERGIIERKNGRRNGFWEIKK,not soluble
2,MERLFKHICLVARHSKPGITPALMQLANHLAAGGATVLIDKESVTPDEANGYPLIDRTDMGKLADLCIVLGGDGTMLSIARLLAPYRVPLVGINQGRLGFMTDIPLHEMLDSVDAILHGKFVPEDRILLQAAVVREDAEVASALAFNDVVFSRGAVGSMIEFEVFIDNQFVYSQRSDGLIVSTPTGSTAYSLASGGPILHPTLQAIALVPICPQSLSNRPIAVNDSCEVEFMLTRGLDARVHFDGQLHCDLMEMDRVLIRRYRNPLRILHPEGYNYYDMLRHKLHWGERLILEHHHHHH,soluble
3,MSLKGTYVLLLKLEESVALRYGKKASHLEPGYYAYVGSAMGGFFKRIPRYFLGSRKRHWHIDYLLDHAQIAGLIMFSGKRIEEEISNVLSYHFEGIEDFGASDLRVKTNLYHVDPDKLFSLLGGFRENRDIRRAQKHRGKQNQSGEGHHHHHH,soluble
4,MRGSHHHHHHTDPALRAKKIPCVMMRGGTSRGAFLLAEHLPEDQTQRDKILMAIMGSGNDLEIDGIGGGNPLTSKVAIISRSSDPRADVDYLFAQVIVHEQRVDTTPNCGNMLSGVGAFAIENGLIAATSPVTRVRIRNVNTGTFIEADVQTPNGVVEYEGSARIDGVPGTAAPVALTFLNAAGTKTGKVFPTDNQIDYFDDVPVTCIDMAMPVVIIPAEYLGKTGYELPAELDADKALLARIESIRLQAGKAMGLGDVSNMVIPKPVLISPAQKGGAINVRYFMPHSCHRALAITGAIAISSSCALEGTVTRQIVPSVGYGNINIEHPSGALDVHLSNEGQDATTLRASVIRTTRKIFSGEVYLPGLCGR,soluble
5,MLSFTLRRAMSFTTRILKVRPESIQFVNDKPQISDNETLINLEIAAKELTTTHNAIGFPTETVYGLAGSALSDESVKSIYKAKNRPADNPLIVHISSIEQLKRKLINYEIPQVYLDLISHFWPGPLTILLPITKDSPISKLVTANQDTFAVRMPNHPVARALIAMSDTPIAAPSANASTRPSPTLAEHVYHDLNGKIPLILDGGACNVGVESTVIDGLVDPPMLLRPGGVSLEDIKRVGGKLWENIVVAKKTAGKLEPVKTPGMKYRHYSPTAKVVLFVNCGDGINAIENYLTNNKVDASTTKIALLKSKHFGEDHPHFIIKRLGTTGNEISHNLFKYLREVDEEDKVELIFVEGIDETNEGLAVMNRLSKAAMEVVNGGEA,soluble
6,MQMNTQREQLIHIWLTSVLNSDEFKIQFLAGDASFRRYARVEYKNNTYMLMDAPPEKEDCVPFVHIDEFFDRHGVRVPHILAKDLVQGFLLLEDFGDVLLSTLLNAQTVNHYYLQAFAQLIHLQSIDGQDQFPAYTFEKLMAEMHLLTEWMLPSLDIQPSSAEQDIIQQTFELLANTALNQPQVIVHRDFHSRNLMKIQGEEELGVIDFQDAVIGADTYDLISITRDAYVQWGEDQVITWFEMFYDLLPDTSKHHRDFEQFKRDADFMAIQRHIKILGIFVRLFERDGKSSYLKDLPRVMWYLLQESRPYAELKPFVEFIQYQVMPKFEQKYGGYEVVKK,not soluble
7,MSSISLIQPDRDLFSWPQYWAACFGPAPFLPMSREEMDQLGWDSCDIILVTGDAYVDHPSFGMAICGRMLEAQGFRVGIIAQPDWSSKDDFMRLGKPNLFFGVTAGNMDSMINRYTADRRLRHDDAYTPDNVAGKRPDRATLVYTQRCKEAWKDVPVILGGIEASLRRTAHYDYWSDTVRRSVLVDSKADMLMFGNGERPLVEVAHRLAMGEPISEIRDVRNTAIIVKEALPGWSGVDSTRLDTPGKIDPIPHPYGEDLPCADNKPVAPKKQEAKAVTVQPPRPKPWEKTYVLLPSFEKVKGDKVLYAHASRILHHETNPAVPAH,not soluble
